Target: OsMADS57 (Oryza sativa, UniProt Q6Z6W2 1-241)
Test: EMSA; competed by unlabeled probe; LightShift Chemiluminescent EMSA Kit (Thermo); buffer, salt, pH and temperature not stated
Conditions: protein: recombinant; tags: His (pET32a(+) vector-encoded tags); chain copies: 2; label: biotin 3' end; blunt

OsMADS57, sequence (Q6Z6W2 whole entry): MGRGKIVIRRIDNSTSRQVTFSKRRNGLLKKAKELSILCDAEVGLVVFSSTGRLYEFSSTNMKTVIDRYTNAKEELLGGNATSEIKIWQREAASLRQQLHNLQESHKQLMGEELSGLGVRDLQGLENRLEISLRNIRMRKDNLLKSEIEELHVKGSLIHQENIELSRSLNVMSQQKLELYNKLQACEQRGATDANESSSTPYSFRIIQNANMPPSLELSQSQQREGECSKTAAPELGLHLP

Binder	binding result
OsGA2ox3 promoter CArG probe (dsDNA) DNA 1: TAGCACGAGGGAAAACCCTTTAAAAAGACAGACAAGGCAGACG DNA 2: CGTCTGCCTTGTCTGTCTTTTTAAAGGGTTTTCCCTCGTGCTA	binds
EUI1 promoter CArG probe (dsDNA) DNA 1: GCCTTTCCCTTTGTTACTGTTGCATATAAAAGATCATCAATGT DNA 2: ACATTGATGATCTTTTATATGCAACAGTAACAAAGGGAAAGGC	binds
